Experimental findings from a protein production outcome set (Wang et al. 2014) are described below.

The nature of the data set: label from the status in PepcDB records.
Regarding “MNLPILPTISTSFIVISAILIAIGWRQIWKRKIESHKKVMLAAAFFALAFFIIYASRTIFIGNTAFGGPDSIKIYYTIFLIFHINLATIGGILGLVQIITAFKDKFKVHRFVGPIASIVWFCTAITGVAVYLLLYVLYPGGETTSLLKATFGL”, the protein production result is on record as “failed”.

For the sequence “MATGNTLLAVYRSRIGEPTTDDEAYGYWLFVIGIVLGIVGLLLFYLTASRSTPRQFGYLLGAIGLISLFAGPTIRLPLTRRGLILTYLGAVVGLVAMVWFTTFYPSNWTGPEGNPAVTLYIVGLGLMAVGAVVSPLLTGRKEAYDKAVQTAEDATEVAEQATQEADRASREATQQSQTADRATRERNRLAEQLATSEAAREELATVTEASEAELAAAHATIAAAMDSKATFELYEDAGGKYRWRLRHRNANVIADSAQGYSSRQKAMQGLRSVQSNAAGGAVVFFEDATEDDTAEDVPVVPAPESDATFELFEDSAGEFRWRLRHDNGNILADSGEGYASKSNVRRALQSVRAHVPGAAYLRVDPVAYEVYADAAGEFRWRLLHRNGNILADSGEGYSSRSNARRAARRVSELAPDSAVDDRFEVYEDAAEEWRWRLRADNGELIADSGEGYANRSKAMDAVERVQSYAADADLLAIGSAAFEVYEDKGEEWRWRLRHRNGKIIADSGEGYAERNKAVAAIERIKRHAPGATQEE”, the protein production result is on record as “failed”. For “MSDAPTVVAYLGPAGTFTEEALYKFADAGVFGDGEIEQLPAKSPQEAVDAVRHGTAQFAVVAIENFVDGPVTPTFDALDQGSNVQIIAEEELDIAFSIMVRPGTSLADVKTLATHPVGYQQVKNWMATTIPDAMYLSASSNGAGAQMVAEGTADAAAAPSRAAELFGLERLVDDVADVRGARTRFVAVQAQAAVSEPTGHDRTSVIFSLPNVPGSLVRALNEFAIRGVDLTRIESRPTRKVFGTYRFHLDISGHIRDIPVAEALRALHLQAEELVFVGSWPSNRAEDSTPQTDQLAKLHKADEWVRAASEGRKLN”, the protein production result is “not failed”. For “MRFSLFVHMERVSDQQTQKQLYDEMIELCQIADRGGMHAIWTGEHHAMNFTIAPNPFLNIADLANKTKHVRLGTGTVVAPFWHPIKLAGEAAMTDIISNGRLDIGIARGAYSFEYERMVPGMDAWSAGQRLREMIPAIKNLWKGDYEHNGEFWQFPKTTSAPQPLQQPNPPIWVAARDPNSHEFAVQNGCNVQVTPLHLGDEEVEKLMGHFNSACEKFQDIERPEIMLLRHTYVADSEEDAQVAANEMNVFYNYFGAWFKNEREINQGLIAPLSDEEIAAHPFYTPEAMRKNNVIGQAQEVIDRLKAYEAMGYDEYSFWIDTGMSFERKKASLERMINEVMPAFSESKVDRRHATISAVY” the value was “failed”. In the case of “MSLTSSAELAEVDTLARSLLLYRSRLSEYAHANPGFSGSPADSALGLPAWFRKPVRLQGYIAAGTSYAFIASPPAGLAAAVDAGTESDLVGVRRNGQLVTRRLGAIAIALPAPIPEGAVVAVKEGHHHHHH”, the protein production entry was “not failed”. Under “MGMTRNLLAAGLAAVLALPALAAELVMVEQHGCEWCARWNEEIAPIYPKTAEGAFAPLRRVDLRAIPADLETARRVVFTPTFLIVEDGRELARLEGYPGEDFFWPLLEQLLVDHAGFVPKKPGSS” stands “failed”. With “MSLELPFSNQSIIPAAHNQKDMEKILELDLTYMVMLETHVAQLKALVKYAQAGGKKVLLHADLVNGLKNDDYAIDFLCTEICPDGIISTRGNAIMKAKQHKMLAIQRLFMIDSSAYNKGVALIQKVQPDCIELLPGIIPEQVQKMTQKLHIPVIAGGLIETSEQVNQVIASGAIAVTTSNKHLWEGHHHHHH”, the protein production result is recorded as “not failed”. Turning to “MSGPERLLTRAPTHRPERPRLTLVSRRVMRTIGWLLLLIGGLAGGLSSAAGQPSAPPDTIRGDAVAPSPAPASGDLAGQGGALEATPLFYVAEDAATLHNRSGLNAPVTRLAMRTPVRRLSCEADWCRVRTDGGTTGYVAADALSNVWIRVSKRKRRVYVYRGAELAHAFEADMAYNAFADKKRNGGKTRPDHWRTPEGTFYVVHKNPQSEFYKALVLNYPKVEDARRGLDAGLISRAQYEAIRQAQQEHRMPPMGTDLGGWIEIHGDGTGDATAWTQGCVAIRNGAMDVIWEQVRVGTPVLIE”, the protein production entry is recorded as “failed”. For “MATATATSERFELAKHCSSRNWSKAIRVLDSLLAKESSILDICNRAFCYNQLELHKHVIKDCDKALLLEPFAIQAFILKGRALLALGRKQEAVLVLEQGYKSALQQTADVKQLLELEELLKDARREIDGILKSHATESPQETPAYHSEKSDEKSDKLDNHESGASSNGNSHESSSELGEQSKIVSFSKVASKASKQSDGNSDLCNGSVYKEKENGKCGSQINGYYESCKPCNGSDLHDNLAESSDRFGELSINGNKISIKSSKMSHKAEARCGISDESRKNKKYTIARISGTHSISVDFRLSRGIAQVNEGNYTKAISIFDKVLKEEPTYPEALIGRGTAYAFQRELESAIADFTKAIQSNPAASEAWKRRGQARAALGEYVEAVEDLTKALVFEPNSPDVLHERGIVNFKSKDFTAAVKDLSICLKQEKDNKSAYTYLGLAFASLGEYKKAEEAHLKSIQLDSNYLEAWLHLAQFYQELADHCKALECIEQVLQVDNRVWKAYHLRGLVFHGLGEHRKAIQELSIGLSIENTIECLYLRGSCYHAVGEYRDAVKDYDATVDVELDAVEKFVLQCLAFYQKELALYTASKVSSEFLCFDIDGDIDPMFKEYWCKRLHPKNVCEKVYRQPPLRESLKKGKLKKQDLAITKQKANILRFADLIGKRIQYDCPGFLPNKRQHRMAGLAVIEIAQKVSKAWRIEWRNSTKGTTKNGKKNRRRERTNILSQNRGGAGCSSSSFSETSTGYASLEDRSSGRSILSWQDVYSPAVRWRQISEPCDPVVWVNKLSEEFNSGFGSHTPMVLGQAKVVRYFPNYERTLTLAKSIIKDKLSVRSKKDKVIDLSKDEKIEKIMRAETCDELHNIVGEDFWVATWCDSTGSEGWVC” the value was “failed”; for “ILHRDADFLLRALQPDDFVRTSRYENANREHLAPWEPLRDPGYFSVDNARARTLLQVASMDEGEALLLLLLDPDDGEVLGRCSYTNIVRGVFQACHLGFSLAAAAQGRGLMARALRVANRYCFEQLGLHRIMASHLPRNARSERLLESLGFEKEGYARAYLKIAGVWEDHVLR”, “failed”; for “MIRIGNLYVYLKNYIMKFTKLTIAFLSVFFCLVVACGSDGINDDPKTPDVTEPVTPNEPDEPDNPSVVKVPTLQKNVQDEWKIDSIDDGFIYYNYERYDDVSKAQQIVNVLEIDLLSNKYKVEFTYNNGDSLSTTAQVRGAIGGINGGYEQEAIYIRINGTNISEVTLPEGHLRYWKHDGALYSDGKSDIGIIYGGRNGKAAIDTYKQHSAKYLLASAPTLIDDYNPLGETFVGNYTMEQLESFDYEDYRRHQGVRHPRTVVAVTEDKDLLLVTIDGRWAGKAEGMSAKEVTLFLKKHFNPQYALNMDGGGSTTMYVKGKGAAKTDVVNYPTDNGVFNHYGQRRVTTHIIVKRK”, “failed”. In the case of “MSQTEPPEDLMQYEAMAQDALRGVVKAALKKAAAPGGLPEPHHLYITFKTKAAGVSGPQDLLSKYPDEMTIVLQHQYWDLAPGETFFSVTLKFGGQPKRLSVPYAALTRFYDPSVQFALQFSAPEIIEDEPEPDPEPEDKANQGASGDEGPKIVSLDQFRKKLEHHHHHH”, the protein production entry is reported as “not failed”. Regarding “MSDTGNYLGPFLVNDFGDRYLYQVNRNAFNSIGSDSLYASTYGESLFAEYQLNIIIGTDSGLFPTYVVNKGIPSGSRYLFIELPEVIERLSEEGILKELPPEVIIATPDTWEEIATDLQINEYVFIDAVRVNESIASSDANLPEYRDISWNINLNVRTLVHETHASINCTQYILRQLENLAENRVAFSRTLVDTFKGRTAVILAGGPSLREALPWVRENRDRLVLIAVSRISKILQSEQIVPHLVATVDPQKVSFEVSREMLYFADMEESPVLVSSYHASPLLVGQWGGRSAYTDSLFPWSTPLNIETHLYTGPTVSNYALSIAMNMGCETIVLAGVDLCFSREGHTHAAGSAENKVGPDLGQLSPRIETNGGWLADTNHGYAHSLEILKLQAELAVSKGHRLYNISLGAAKIPLIEYRPPSEIDLPEDTISTSALIDKYLPPPTSKARLSHYRKIKKELERAQHKFKEILSLSQEALECTDGLFGRNGKERSFRHKVQMDKIERKLDRRYGDFSLLVKQFGLKKFLSILRTPKEEQEWTDEQIEKATRDYYQAYMAGTIQLLAVTNSALSRIEARIEEEKSSPDCDLFISQWLRDGQPGRGRFWLRNHPVTAQCLSEAILGKFRELDDQFTHLMTDEQTIRMELLEKGYDLKHIRSKARLLFRRGEREELEAMAAGIASHPDREKAEPYLYFINGLIAELQQEPNRAIECYQHLLVDPPHPTTEDALRQIASLAIAGNDVENALLALECLSRMSPAYLSPYGEILKALGRYDEAFDAFNRYLSIAPKDVGTLVTLGILCRDAGLADTARDLFARVLENDPTNRVALSQLEGLAAPSND”, the protein production result is given as “failed”. “MGHHHHHHSHMDTPENVLQMLEAHMQSYKGNDPLGEWERYIQWVEENFPENKEYLITLLEHLMKEFLDKKKYHNDPRFISYCLKFAEYNSDLHQFFEFLYNHGIGTLSSPLYIAWAGHLEAQGELQHASAVLQRGIQNQAEPREFLQQQYRLFQTRLTETHLPAQAR”: the protein production entry was “failed”. Regarding “MQADPAIRRFAKKRNKRVDRMILDSNYMHTSIDRYFPNESKRRGRPDIIYLLLEMTQESILNHKNQLRTYVHTRNNQVIRISPITRMPKSYNRFIGLFEDLFEKRIITNNGKELLSMEESSLGDLINSIRRDRTILLHPKGEMRKPSEFISNANILIVIGGFSEGDFISDTSFINERYAIFDQELTIWSVANEMVANYERAVGLTLEHHHHHH”, the protein production entry is “not failed”. For “MVESKNTELSQGTWLNKPKSVFQEAGKVTLETDEKTDFWRETFYGFTRDSGHFLGVETGSAFTAQVRVQGSYESLYDQAGIMVRIDDGHWLKAGIEISDGHAMLSSVLTNGKSDWSTAVYGGNARDFWLRVTVEKGVLRIQVSSDKKTWPLVRLAPFPTSDHYLVGPMACTPERGGLKVTFSEWSLTAPLGKALHDLS” the value was “failed”; for “ANGTVATAAIQPKKVKGVGFGDIFKDKPIKLRPRSIEVENDFLPVEKTIGKKLPATTATPDSSKTEMDSRTKSKDYCKVIFPYEAQNDDELTIKEGDIVTLINKDCIDVGWWEGELNGRRGVFPDNFVKLLPPDFEKEGNR”, “failed”. For “MSPIVTAILVASNLGLIFLLMTVPLGLRTVRVSRVIAMDRGRLWQALWPLGSDAGWSGEILSAEPLDGEGVSRIMLSWEGRDGEPIERRARFDDVVEGSRFSMRVLEDTALDASFWKDYRETAELVSEGSGTRVTLGRTDRYRGVAFLVFRYFAMRRELSKLQRWAMTGQYRKGGWFEHPLSQVGFAVLSALILWPFFGLHLGGLALAAILTSVVALHELGHMAAFRLMGHRKARMIFIPLLGGIAIGGRPYNSRFEVAFVALMGAGFSAFLVPIAIAASAFAGSEGHKAAAALLAALAGCAALFNIANLVPVWKFDGGQVLRQICPGPVALALASFFLLSAFLAVGWEAGFSSGFLLATGAVFSILSLLTMGSGVKPRYELKPIRTVDRFAIAGALLAVFVIHGCGVLWASAQLL” the value was “failed”; for “MIANNIIPIIFLLIIVYGMFKGRKVYEWFLEGAKEGLMVCVKIFPALLAMMIAIRIFKDANLLNYLNNLLEPIVSLIGLPKDIVPLVLIKPLSGSGALGVYTELINTLGPDTREGLISSVIMGGTETIFYTITVYFGAVGIKKIRHTFWAALMADITAIIMAVLVVSMFFGL”, “failed”.

As to “ITIRDDILFQSGSAELTAGKREIAKEIGELFAQGKGTMEGIVSGHTDNVPISTSIYSSNWELSVARAVNFMEAIIQENSEVNPGEFSARGYGEFRPVAKNDIAANREKNRRVEIMVRPINRDTLDEDE”, the protein production result is “failed”.
